In article PMC3145545 (Molecular Biology of the Cell, 2011):

B1: Pac11 1-86 VQ51,52DA (site 1 mutant) (domain or fragment)
chain: MERLKQLEEKRRQLKELRERRKQASLFPGSETMGHHPTEVHAKATMVSVSDATDMEEGSKIQEPQSAYLRRKEVITYDKGIQTDQI
B2: Pac11 1-86 IQ81,82DA (site 2 mutant) (domain or fragment)
chain: MERLKQLEEKRRQLKELRERRKQASLFPGSETMGHHPTEVHAKATMVSVSVQTDMEEGSKIQEPQSAYLRRKEVITYDKGDATDQI
B3: Drosophila LC8 (dynein light chain) (natural protein)
chain: MSDRKAVIKNADMSEEMQQDAVDCATQALEKYNIEKDIAAYIKKEFDKKYNPTWHCIVGRNFGSYVTHETRHFIYFYLGQVAILLFKSG

How the values were obtained:
[1] = target: B3; assay: native gel or EMSA
[2] = target: B1; assay: AUC
[3] = target: B2; assay: AUC

binding result [1] | stoichiometry N [2] | stoichiometry N [3] | Binder
binds | – | – | B1
binds | – | – | B2
– | 1 LC8 per Pac11 | 1 LC8 per Pac11 | B3
